The text below walks through data of patent US20090175858A1 (Merck KGaA, published 2009).

Experiment [1] addresses T1, sEGFR (soluble extracellular region of EGFR), wild-type (UniProt P00533 25-645, limits assumed).
T1 construct: extracellular domain; also called EGFR soluble extracellular domain
The experiment is described as follows: SPR (Biacore 3000), equilibrium response, sEGFR over immobilized Fab72000. A general note: SPR reads the build-up and loss of mass on a sensor chip optically.

The target in experiment [2] is T2, sEGFRd3 (isolated domain III of sEGFR; amino acids 310-514 of mature EGFR) (UniProt P00533 334-538).
T2 construct: range 310-514; The range 310-514 counts on mature EGFR, not on the precursor; also called soluble extracellular EGFR domain III
The experiment is described as follows: SPR (Biacore 3000), equilibrium response, sEGFRd3 over immobilized Fab72000.

Another experiment addresses T3, sEGFR T459A/S460A/K463A (UniProt P00533 25-645, limits assumed).
T3 construct: extracellular domain; Positions are in mature EGFR numbering; also called triple alanine mutant
The experiment is described as follows: SPR, equilibrium response, mutated sEGFR passed over immobilized Fab72000 [2A].

Another experiment deals with T4, sEGFR K454A/T459A/S460A (UniProt P00533 25-645, limits assumed).
T4 construct: extracellular domain; Positions are in mature EGFR numbering; also called triple alanine mutant
The description is as above.

B1: Fab fragment of matuzumab (Fab72000) (Fab, V domains shown)
VH: QVQLVQSGAEVKKPGASVKVSCKASGYTFTSHWMHWVRQAPGQGLEWIGEFNPSNGRTNYNEKFKSKATMTVDTSTNTAYMELSSLRSEDTAVYYCASRDYDYDGRYFDYWGQGTLVTVSS
VL: DIQMTQSPSSLSASVGDRVTITCSASSSVTYMYWYQQKPGKAPKLLIYDTSNLASGVPSRFSGSGSGTDYTFTISSLQPEDIATYYCQQWSSHIFTFGQGTKVEIKR
notes: also called Fab fragment of EMD 72000
On to B1, for which the Kd (as a rule, the free concentration of one partner at which half of the binding sites on the other are occupied at equilibrium, for simple one-to-one binding) was 103 nM in experiment [1] and 50.1 nM in experiment [2]. Besides, the binding result with sEGFR T459A/S460A/K463A and with sEGFR K454A/T459A/S460A was “no binding (tested: 2000 nM)” in each case.
